From PMC4011729, “Inhibiting Heat Shock Factor 1 in Human Cancer Cells with a Potent RNA Aptamer” come the findings set out here.

For one data set, the target named is HSF2 (Homo sapiens, UniProt Q03933 1-536). Nature of the data set: EMSA; apparent affinity from % shifted complex; 1 nM RNA; EMSA: 1X binding buffer (composition not given), 1 µg yeast RNA, 4 µg BSA, 5 mM DTT, 10% glycerol, 6 U SUPERase-In in 10 µl; room temperature 30 min then 4 C 10 min; 6-9% native gel, 1/4 TBE, 1 mM MgCl2, 4 C; pH not stated. Particulars: protein: recombinant; tags: His; label: internal 32P-UTP; two aptamer units, 5' and 3' ends protected. (In general: In EMSA bound probe runs differently from free probe, usually more slowly.)

The next data set addresses HSF1 (Homo sapiens, UniProt Q00613 1-529). Nature of the data set: EMSA; apparent Kd, n = 5; 1 nM RNA; EMSA: 1X binding buffer (composition not given), 1 µg yeast RNA, 4 µg BSA, 5 mM DTT, 10% glycerol, 6 U SUPERase-In in 10 µl; room temperature 30 min then 4 C 10 min; 6-9% native gel, 1/4 TBE, 1 mM MgCl2, 4 C; pH not stated. As to conditions: protein: recombinant; tags: His; label: internal 32P-UTP; two aptamer units, 5' and 3' ends protected.

Sequence of HSF2 (Q03933 whole entry): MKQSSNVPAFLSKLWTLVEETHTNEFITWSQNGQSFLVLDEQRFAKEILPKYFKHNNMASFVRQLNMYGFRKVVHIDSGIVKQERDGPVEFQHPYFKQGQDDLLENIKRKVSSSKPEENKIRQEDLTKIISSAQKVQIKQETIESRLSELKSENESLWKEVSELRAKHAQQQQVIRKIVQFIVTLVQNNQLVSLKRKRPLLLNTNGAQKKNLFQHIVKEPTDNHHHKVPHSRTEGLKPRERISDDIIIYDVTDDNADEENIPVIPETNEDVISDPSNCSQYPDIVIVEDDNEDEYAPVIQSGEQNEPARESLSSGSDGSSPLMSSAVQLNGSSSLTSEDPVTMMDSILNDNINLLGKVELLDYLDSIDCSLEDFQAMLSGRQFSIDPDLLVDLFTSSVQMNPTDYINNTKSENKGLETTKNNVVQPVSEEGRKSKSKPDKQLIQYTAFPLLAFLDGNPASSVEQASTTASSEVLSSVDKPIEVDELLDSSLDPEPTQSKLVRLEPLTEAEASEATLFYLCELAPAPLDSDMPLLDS
Sequence of HSF1 (Q00613 whole entry): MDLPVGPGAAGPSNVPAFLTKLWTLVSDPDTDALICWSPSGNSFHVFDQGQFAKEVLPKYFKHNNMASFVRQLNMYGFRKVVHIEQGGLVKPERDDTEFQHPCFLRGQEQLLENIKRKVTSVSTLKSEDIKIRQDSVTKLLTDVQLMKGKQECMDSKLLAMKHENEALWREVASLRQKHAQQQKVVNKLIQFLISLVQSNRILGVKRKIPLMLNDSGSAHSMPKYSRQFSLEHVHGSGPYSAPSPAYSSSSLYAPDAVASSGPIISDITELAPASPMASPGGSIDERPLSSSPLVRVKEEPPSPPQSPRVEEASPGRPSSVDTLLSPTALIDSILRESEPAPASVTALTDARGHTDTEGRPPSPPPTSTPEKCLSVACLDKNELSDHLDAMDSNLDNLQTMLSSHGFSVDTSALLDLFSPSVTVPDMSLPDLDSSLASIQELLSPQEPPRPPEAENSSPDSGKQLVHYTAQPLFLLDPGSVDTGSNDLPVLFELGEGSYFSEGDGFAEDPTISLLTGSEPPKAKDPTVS

B1: iaRNAHSF1 (structured_RNA)
RNA: GUCGAGUGACGUUGGCAUCGCGAUACAAAAUUAAGUUGAACGCGAGUUCUUCGGAAUUCAACUGCCUUCGUCAUACUCCUUGAAUUCAACUGCCUUCGGGCAUCGCGAUACAAAAUUAAGUUGAACGCGAGUUCUUGGAGGCUCGACGUCUAGCGAUGUGGUUUCGCUACUGAUGAGUCCGUGAGGACGAAAC
Turning to B1, the figures for the Kd in the data set with HSF2 and with HSF1 were around 141 nM and around 25 nM, respectively.
